Residue numbers refer to the chain shown, from its start.
T1: hIL-18 receptor (hIL-18Rα and hIL-18Rβ) (human, UniProt Q13478 19-541; O95256 20-599)
T1 sequence (looked up) 1: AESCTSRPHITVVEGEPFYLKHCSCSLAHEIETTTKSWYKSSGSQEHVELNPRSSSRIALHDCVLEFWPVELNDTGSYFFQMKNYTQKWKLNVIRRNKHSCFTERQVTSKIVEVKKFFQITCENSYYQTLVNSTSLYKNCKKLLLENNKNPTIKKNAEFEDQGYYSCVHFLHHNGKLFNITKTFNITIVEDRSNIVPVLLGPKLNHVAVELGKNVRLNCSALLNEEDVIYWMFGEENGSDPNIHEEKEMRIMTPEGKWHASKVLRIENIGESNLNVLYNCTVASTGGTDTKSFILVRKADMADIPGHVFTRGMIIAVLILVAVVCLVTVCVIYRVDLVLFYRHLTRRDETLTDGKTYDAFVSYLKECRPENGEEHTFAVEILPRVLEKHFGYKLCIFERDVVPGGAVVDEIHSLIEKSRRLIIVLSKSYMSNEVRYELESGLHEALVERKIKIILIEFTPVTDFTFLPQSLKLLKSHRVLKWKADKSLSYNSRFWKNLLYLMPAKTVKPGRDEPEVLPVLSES
T1 sequence (looked up) 2: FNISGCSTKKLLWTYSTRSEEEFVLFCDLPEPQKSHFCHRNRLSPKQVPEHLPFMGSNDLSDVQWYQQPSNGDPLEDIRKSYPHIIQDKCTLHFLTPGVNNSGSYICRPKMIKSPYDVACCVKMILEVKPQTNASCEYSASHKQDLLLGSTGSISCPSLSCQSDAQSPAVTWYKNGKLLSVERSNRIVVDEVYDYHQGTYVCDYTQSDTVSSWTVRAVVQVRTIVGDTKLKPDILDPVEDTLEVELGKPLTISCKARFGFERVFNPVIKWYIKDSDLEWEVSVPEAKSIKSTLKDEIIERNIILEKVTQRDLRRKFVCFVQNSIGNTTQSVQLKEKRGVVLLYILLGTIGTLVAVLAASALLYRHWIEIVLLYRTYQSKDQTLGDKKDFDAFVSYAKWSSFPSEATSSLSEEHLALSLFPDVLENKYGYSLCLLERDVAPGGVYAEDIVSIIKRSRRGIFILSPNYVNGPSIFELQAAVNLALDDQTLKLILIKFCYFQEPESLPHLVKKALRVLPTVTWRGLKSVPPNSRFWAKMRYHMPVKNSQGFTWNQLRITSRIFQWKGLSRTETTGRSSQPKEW

T2: hIL-18BP-hFc (human, UniProt O95998 31-194, limits assumed)
T2 sequence (looked up): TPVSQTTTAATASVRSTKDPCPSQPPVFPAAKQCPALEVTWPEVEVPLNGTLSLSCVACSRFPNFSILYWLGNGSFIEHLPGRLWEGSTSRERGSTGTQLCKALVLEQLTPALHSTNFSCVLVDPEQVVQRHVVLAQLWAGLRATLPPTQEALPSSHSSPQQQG

T3: hIL-18Rα ECD-Fc fusion protein (human, UniProt Q13478 22-329)
T3 construct: extracellular domain; captured on Protein A sensor
T3 sequence (looked up): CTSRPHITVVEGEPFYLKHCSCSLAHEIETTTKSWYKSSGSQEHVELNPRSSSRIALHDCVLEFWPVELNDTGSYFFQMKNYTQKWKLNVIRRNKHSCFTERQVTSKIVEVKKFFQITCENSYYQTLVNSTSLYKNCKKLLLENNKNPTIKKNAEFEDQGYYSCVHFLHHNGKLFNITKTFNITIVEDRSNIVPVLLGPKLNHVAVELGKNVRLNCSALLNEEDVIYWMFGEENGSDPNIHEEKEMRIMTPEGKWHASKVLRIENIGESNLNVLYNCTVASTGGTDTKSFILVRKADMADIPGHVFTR

T4: recombinant hIL-18Rα extracellular domain (human, UniProt Q13478 22-329, biotin label (selection) or fluorescent probe (single-clone FACS), sites not given)
T4 construct: extracellular domain; also called hIL-18Rα ECD; hIL-18Rα-ECD
T4 sequence (looked up): T3 sequence (looked up)

B1: IL-18 variant polypeptide M27 (ligand)
chain: YFPKLRSKLSVIRNLNDQVLFIDQGNRPLFEDMTDSDCRDNAPRTIFIISMYKHSYTRGMAVTISVKCEKISTLSCENKIISFKEMNPPDVIKDTKSDIIFFQYSVPGHDNKMQFESSSYEGYFLACEKERDLFKLILKKEDELGDRSIMFTVQNED
B2: IL-18 variant polypeptide MM1 (ligand)
chain: B1 chain with R6K, H54L, Y56T, T57Q, Y104R
B3: IL-18 variant polypeptide M38 (ligand)
chain: B1 chain with R6S, H54W, Y56G, T57A, Y104I
B4: IL-18 variant polypeptide LM3 (ligand)
chain: B1 chain with V11I, H54G, Y56G, T57A, V91G, Y104R
B5: IL-18 variant polypeptide LM5 (ligand)
chain: B1 chain with P3G, H54W, Y56S, T57Q, V91N, Y104R
B6: IL-18 variant polypeptide LM1 (ligand)
chain: B1 chain with R6K, H54G, Y56G, T57A, V91N, Y104R
B7: IL-18 variant polypeptide M30 (ligand)
chain: B1 chain with R6L, Y56T, T57V, V91S, Y104R
B8: IL-18 variant polypeptide M31 (ligand)
chain: B1 chain with Y56I, T57H, V91I
B9: IL-18 variant polypeptide LM2 (ligand)
chain: B1 chain with H54L, Y56G, T57S, Y104R
B10: IL-18 variant polypeptide MM4 (ligand)
chain: B1 chain with H54L, Y56T, T57I, V91G, Y104R
B11: IL-18 variant polypeptide M28 (ligand)
chain: B1 chain with R6A, H54W, Y56G, T57G
B12: IL-18 variant polypeptide LM4 (ligand)
chain: B1 chain with R6K, T57S, V91N, Y104R
B13: IL-18 variant polypeptide MM2 (ligand)
chain: B1 chain with P3A, R6Y, H54R, Y56S, T57L, V91G, Y104R
B14: IL-18 variant polypeptide M37 (ligand)
chain: B1 chain with R6G, H54Q, Y56V, T57W, V91N, Y104R
B15: IL-18 variant polypeptide M39 (ligand)
chain: B1 chain with H54W, Y56P, T57G, Y104L
B16: IL-18 variant polypeptide M40 (ligand)
chain: B1 chain with P3D, R6K, H54P, Y56S, T57W, V91W, Y104R
B17: IL-18 variant polypeptide M34 (ligand)
chain: B1 chain with Y56R, T57N, Y104E
B18: IL-18 variant polypeptide M39 (ligand)
chain: B1 chain with H54W, Y56P, T57G, Y104L
B19: IL-18 variant polypeptide M34 (ligand)
chain: B1 chain with Y56R, T57N, Y104E
B20: IL-18 variant polypeptide M38 (ligand)
chain: B1 chain with R6S, H54W, Y56G, T57A, Y104I
B21: IL-18 variant polypeptide M40 (ligand)
chain: B1 chain with P3D, R6K, H54P, Y56S, T57W, V91W, Y104R
B22: IL-18 variant polypeptide M35 (ligand)
chain: B1 chain with H54G, Y56G, T57A, V91G, Y104R
B23: IL-18 variant polypeptide M37 (ligand)
chain: B1 chain with R6G, H54Q, Y56V, T57W, V91N, Y104R
B24: IL-18 variant polypeptide M32 (ligand)
chain: B1 chain with R6G, H54S, Y56S, T57R, V91N, Y104R
B25: IL-18 variant polypeptide M33 (ligand)
chain: B1 chain with P3E, R6H, H54R, Y56T, T57H, V91N, Y104R

Key:
[1] = target: T1, hIL-18 receptor (hIL-18Rα and hIL-18Rβ); assay: cell-based or functional assay
[2] = target: T2, hIL-18BP-hFc; assay: cell-based or functional assay
[3] = target: T3, hIL-18Rα ECD-Fc fusion protein; assay: BLI (Octet RED96), hIL-18Rα ECD-Fc on Protein A sensor
Experimental: The affinities of IL-18 variant polypeptides for hIL-18Rα were assessed by Biolayer Interferometry (BLI) on Octet RED96 using Protein A sensor coated with hIL-18Rα ECD-Fc fusion protein, and WT hIL-18 was used as a control.

[4] = target: T4, recombinant hIL-18Rα extracellular …; assay: single-clone FACS, yeast display, 10 nM labelled hIL-18Rα ECD
How it was run: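 Yeast clones displaying IL-18 variants (screening rounds 4 and 5), at equal density, incubated with 10 nM fluorescently labelled hIL-18Rα ECD, then washed. Fraction of fluorescence-positive binding cells per clone measured by flow cytometry.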

Binder	EC50 (nM), hIL-18 reporter assay [1] [nM]	EC50 (nM) in the Presence of 1 µg/mL hIL-18BP-hFc, hIL-18 reporter assay [2] [nM]	EC50 Fold Change (+BP/-BP), hIL-18 reporter assay [2] [fold]	Kd [3] [nM]	Response (nm) [3] [nm]	koff [3] [s⁻¹]	kon [3] [M⁻¹ s⁻¹]	% of fluorescence positive cells [4] [%]
B1	0.18	0.26	1.44	–	–	–	–	–
B2	0.97	0.81	0.84	–	–	–	–	–
B3	0.57	1.2	2.11	–	–	–	–	–
B4	0.052	0.069	1.33	–	–	–	–	–
B5	0.13	0.12	0.92	–	–	–	–	–
B6	0.076	0.11	1.45	–	–	–	–	–
B7	2.5	1.7	0.68	–	–	–	–	–
B8	0.25	0.18	0.72	–	–	–	–	–
B9	0.11	0.055	0.5	–	–	–	–	–
B10	0.13	0.43	3.31	–	–	–	–	–
B11	0.018	0.042	2.33	–	–	–	–	–
B12	0.16	0.17	1.06	–	–	–	–	–
B13	0.93	2.24	2.41	–	–	–	–	–
B14	0.14	0.33	2.36	–	–	–	–	–
B15	0.3	0.44	1.47	–	–	–	–	–
B16	0.12	0.16	1.33	–	–	–	–	–
B17	0.71	0.9	1.27	–	–	–	–	–
B18	–	–	–	20.6	0.0605	0.0221	1.07e+06	76.5
B19	–	–	–	32.8	0.084	0.0166	505000	87.5
B20	–	–	–	120	0.0307	0.0334	278000	79.5
B21	–	–	–	32.6	0.161	0.0121	371000	39.6
B22	–	–	–	34.1	0.129	0.0156	456000	92.9
B23	–	–	–	21.8	0.222	0.00883	404000	95.4
B24	–	–	–	17.3	0.0381	0.0234	1.36e+06	4.21
B25	–	–	–	595	0.0257	0.0957	161000	0.17

Source: patent US20260092093A1 (TJ BIOPHARMA SHANGHAI, published 2026)
